Reference: PMC11672753 (Plant Biotechnology Journal, 2024)

Biological target: T1, SARS-CoV-2 Spike Wuhan (recombinant) (SARS-CoV-2, Wuhan-Hu-1, UniProt P0DTC2)
T1 construct: also called recombinant SARS-CoV-2 Spike
Test: ELISA; plates coated with 2 μg/mL SARS-CoV-2 Spike Wuhan in PBS; antibodies from 5 nM, 10-fold serial dilutions in PBS/0.5% BSA, 1 h RT; detected with goat anti-human IgG (H + L) peroxidase
Settings: both partners purified

Binder | binding result
M15-YTE (antibody, V domains shown) VH: QVQLLESGGGLVQPGGSLRLSCAASGFTFSSYAMSWVRQAPGKGLEWASAISGSGGSTYYADSVEGRFTISRDNSKNTLYLQMNSLRAEDTAVYYCAKDTGYCGDDCYIKLIRGGPDYWGQGTLVTVSS VL: DIVMTQSPLSLPVTLGQPASISCRSSQSLVYSDGNTFLNWFQQRPGQSPRRLIYQVSNRDSGVPDRFSGSGSGTDFTLKISRVEAEDVGVYYCMQGTHWPRTFGQGTKLEIK | binds
S15-HDEL (Fc fusion) VH: QVQLLESGGGLVQPGGSLRLSCAASGFTFSSYAMSWVRQAPGKGLEWASAISGSGGSTYYADSVEGRFTISRDNSKNTLYLQMNSLRAEDTAVYYCAKDTGYCGDDCYIKLIRGGPDYWGQGTLVTVSS VL: DIVMTQSPLSLPVTLGQPASISCRSSQSLVYSDGNTFLNWFQQRPGQSPRRLIYQVSNRDSGVPDRFSGSGSGTDFTLKISRVEAEDVGVYYCMQGTHWPRTFGQGTKLEIK | binds
S15-FX (Fc fusion) VH: QVQLLESGGGLVQPGGSLRLSCAASGFTFSSYAMSWVRQAPGKGLEWASAISGSGGSTYYADSVEGRFTISRDNSKNTLYLQMNSLRAEDTAVYYCAKDTGYCGDDCYIKLIRGGPDYWGQGTLVTVSS VL: DIVMTQSPLSLPVTLGQPASISCRSSQSLVYSDGNTFLNWFQQRPGQSPRRLIYQVSNRDSGVPDRFSGSGSGTDFTLKISRVEAEDVGVYYCMQGTHWPRTFGQGTKLEIK | binds
M15 (plant-produced COVA2-15, conventional IgG1) (antibody, V domains shown) VH: QVQLLESGGGLVQPGGSLRLSCAASGFTFSSYAMSWVRQAPGKGLEWASAISGSGGSTYYADSVEGRFTISRDNSKNTLYLQMNSLRAEDTAVYYCAKDTGYCGDDCYIKLIRGGPDYWGQGTLVTVSS VL: DIVMTQSPLSLPVTLGQPASISCRSSQSLVYSDGNTFLNWFQQRPGQSPRRLIYQVSNRDSGVPDRFSGSGSGTDFTLKISRVEAEDVGVYYCMQGTHWPRTFGQGTKLEIK | binds
S15-YTE (Fc fusion) VH: QVQLLESGGGLVQPGGSLRLSCAASGFTFSSYAMSWVRQAPGKGLEWASAISGSGGSTYYADSVEGRFTISRDNSKNTLYLQMNSLRAEDTAVYYCAKDTGYCGDDCYIKLIRGGPDYWGQGTLVTVSS VL: DIVMTQSPLSLPVTLGQPASISCRSSQSLVYSDGNTFLNWFQQRPGQSPRRLIYQVSNRDSGVPDRFSGSGSGTDFTLKISRVEAEDVGVYYCMQGTHWPRTFGQGTKLEIK | binds
S15 (plant-produced COVA2-15, single-chain (sc)Fv-Fc format) (Fc fusion, human) VH: QVQLLESGGGLVQPGGSLRLSCAASGFTFSSYAMSWVRQAPGKGLEWASAISGSGGSTYYADSVEGRFTISRDNSKNTLYLQMNSLRAEDTAVYYCAKDTGYCGDDCYIKLIRGGPDYWGQGTLVTVSS VL: DIVMTQSPLSLPVTLGQPASISCRSSQSLVYSDGNTFLNWFQQRPGQSPRRLIYQVSNRDSGVPDRFSGSGSGTDFTLKISRVEAEDVGVYYCMQGTHWPRTFGQGTKLEIK | binds
M15-FX (antibody, V domains shown) VH: QVQLLESGGGLVQPGGSLRLSCAASGFTFSSYAMSWVRQAPGKGLEWASAISGSGGSTYYADSVEGRFTISRDNSKNTLYLQMNSLRAEDTAVYYCAKDTGYCGDDCYIKLIRGGPDYWGQGTLVTVSS VL: DIVMTQSPLSLPVTLGQPASISCRSSQSLVYSDGNTFLNWFQQRPGQSPRRLIYQVSNRDSGVPDRFSGSGSGTDFTLKISRVEAEDVGVYYCMQGTHWPRTFGQGTKLEIK | binds
M15-HDEL (antibody, V domains shown) VH: QVQLLESGGGLVQPGGSLRLSCAASGFTFSSYAMSWVRQAPGKGLEWASAISGSGGSTYYADSVEGRFTISRDNSKNTLYLQMNSLRAEDTAVYYCAKDTGYCGDDCYIKLIRGGPDYWGQGTLVTVSS VL: DIVMTQSPLSLPVTLGQPASISCRSSQSLVYSDGNTFLNWFQQRPGQSPRRLIYQVSNRDSGVPDRFSGSGSGTDFTLKISRVEAEDVGVYYCMQGTHWPRTFGQGTKLEIK | binds
